These are literature values, as cited in article PMC6321638.

This series concerns the target ALG-2 (Homo sapiens) (UniProt O75340). The experiment in a line: SPR.

Chain of ALG-2 (Homo sapiens) (O75340 2-191): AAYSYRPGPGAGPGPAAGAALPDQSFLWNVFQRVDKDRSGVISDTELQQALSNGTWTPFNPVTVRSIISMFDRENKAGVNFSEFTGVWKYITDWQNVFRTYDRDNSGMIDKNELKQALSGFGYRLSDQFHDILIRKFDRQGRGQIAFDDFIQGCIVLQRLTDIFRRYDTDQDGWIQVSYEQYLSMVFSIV

The Kd is the constant that tells how readily two partners part at equilibrium. For ALIX peptide, the Kd is 200 nM.
